Experimental data taken from paper PMC5499655.

Target: T1, His6-BldD (Streptomyces venezuelae) (UniProt A0ABZ1NMZ0)
T1 sequence: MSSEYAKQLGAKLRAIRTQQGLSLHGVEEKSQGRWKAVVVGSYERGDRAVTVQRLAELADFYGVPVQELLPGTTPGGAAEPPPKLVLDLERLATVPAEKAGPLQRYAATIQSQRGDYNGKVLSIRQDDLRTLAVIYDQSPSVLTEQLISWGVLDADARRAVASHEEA
Assay: EMSA
Conditions: binding buffer and pH not stated

Row | Sequence | binding
1 | CTCCCAGAGGCAGAGCTTCCATCACGTGCAGTGCGGGACCGTTCACCCGTCGTGGCGACGTGAGGGGTCCTTTGTGCGTCTGAGGAGAATAACGCTTCGTACAGGCAGCGCTACACCCAGTTGCCTAAATCACCGGTTCCG (double strand) [bldN promoter] | binds
2 | GCCATGACCTGCTGTGACTTGAGTCACAGAGGCGAGTATTTGCTGACCCTGTGTACCGGGTGCGCAGCTCGCTGTGATTCAGTGGCGGTGACAGTGCAACACGAAGCCGATGAGAACCCTGGAGTTGCTGTCGAGGTCTCG (double strand) [cdgB promoter] | binds
